Assays:
[1] = tested on: rat model of complete heart block; test: Effect of TGF-beta small molecule inhibitor on ventricular pacing with TBX18 mRNA; assay type: in vivo; conditions: A83-01 released by osmotic pump
Description: On Day 0, an osmotic pump releasing A83-01 (a TGF-beta inhibitor, Sigma Aldrich) was implanted into the rats. On Day 1, TBX18 mRNA was injected into the rats and a telemetry device was also implanted. Two doses of TBX18 mRNA were given to the rats: (i) a low dose of 100 μg TBX18 mRNA with 68.4 μl RNA-free phosphate-buffered saline (PBS), or (ii) a high dose of 300 μg TBX18 mRNA with 205 μl RNA-free PBS. A continuous telemetry recording of each rat's electrocardiogram (ECG) was made for 21 days after implantation of the telemetry device. In addition, 3-lead surface ECGs were performed on anesthetized animals on Days 7, 14, and 21 along with an isoproterenol challenge. The heart was harvested from each animal on Day 21.
The inventors then determined the effects of including a TGF-beta small molecule inhibitor on ventricular pacing with TBX18 mRNA (FIG. 16).

[2] = tested on: Human iPS cell-derived cardiomyocytes; test: MEA functional testing of mRNA-expressed opsins with light excitation; assay type: cell-based
Description: Human iPS cell-derived cardiomyocytes were seeded into 48 well Axion MEA plates and cultured for 2 weeks until completely synchronized electrical activity (beat rate) was observed. Cells were transfected with ChR2 mRNA, JAWs mRNA, delivery vehicle only, or a mixture of both mRNAs using a modified PEI derivative (Lypocalyx Gmbh). Transfected cells were assayed using the Axion Maestro MEA and Lumos light excitation device at 6 hours and 24 hours post transfection. Assays were comprised of electrical readout (16 electrodes per well) with either no stimulus, blue light stimulus (drives firing in ChR2-transfected cells), orange light stimulus (inhibits firing in JAWs-transfected cells), or blue light impulse stimulus with a period of constant orange light.
As a preliminary step, the inventors determined the optimal amount of delivery vehicle to transfect cells for adequate function of the expressed mRNA, defined as complete control of beat rate with ChR2 and conversely complete inhibition of firing with JAWs. […] Delivery vehicle alone had no effect on native cell beat rates, thus it is likely that higher amounts of protein can be generated if opsin function is required more rapidly. […] Using 0.1 ul of delivery vehicle, all three wells (100%) were paced via light (FIG. 3C).
The inventors next tested expression and function of ChR2 and JAWS (inhibitory opsin) in iPS-derived cardiomyocytes. Here, 500 ng each of ChR2 and JAWS mRNA were delivered to iPS-derived cardiomyocytes in an MEA plate (FIG. 9). The next day, cells were paced using pulsed blue light stimulation (arrows). At the same time, orange light was used for several seconds (bars) to prevent cardiomyocytes from beating.

[3] = tested on: neonatal rat ventricular myocytes (NRVMs); test: MEA light pacing of NRVMs transfected with ChR2 or CatCH mRNA; assay type: cell-based
Description: For proper characterization of cells transfected with opsins, in addition to protein expression, another metric, function, can assist in properly optimizing the use of mRNA as an expression vector. Functional characterization can be performed with the use of a multi-electrode array (MEA). An MEA device uses electrodes to measure the field potential of nearby cells. Changes in field potential in cardiomyocytes can be detected in an amplitude and location-specific manner depending on the pickup electrode. The MEA device used, a Maestro from Axion Biosystems, allows the simultaneous measurement and light excitation of 16 electrodes per well in a 48 well plate. By employing primary ventricular cardiomyocytes from neonatal rats (NRVMs), functional expression of an opsin such as ChR2 can be measured as a synchronization event between electrical activity and pulsed light excitation from the LEDs embedded in the Axion Lumos device.
Pacing cardiac myocytes allows the screening of new drugs in a controlled environment, where the effect on beat frequency and waveforms can be measured against predicted values in the presence/absence of drugs. The inventors transfected neonatal rat ventricular myocytes (NRVMs) with mRNA encoding ChR2 and a modified ChR2 with a single amino acid substitution, CatCH. NRVMs were plated on MEA plates and the next day were transfected with ChR2 or CatCH mRNA at varying concentrations in triplicate wells using Viromer Red (Lipocalyx). […] Furthermore, when interrogated with excitation rates of 1 hz, 2 hz, and 3 hz, CatCH transfected cells were able to be driven at higher beat rates (3 hz) up to 72 hours post-transfection (FIG. 8) compared to ChR2 transfected cells. As the amount of mRNA and structure of the opsin are very similar, this difference can be inferred as due to enhanced opsin sensitivity—fewer opsins per cell were necessary to drive cardiac action potentials. When opsin expression was low, such as at timepoints several days following transfection, cardiac cells could only be driven at the slower rate of 1 hz successfully.

[4] = tested on: neonatal rat ventricular cardiomyocytes (NRVMs); test: Capture of CatCh transfected NRVMs by 475 nm blue light stimulation; assay type: cell-based
Description: (§1) As a first step, the inventors expressed CatCh in neonatal rat ventricular cardiomyocytes (NRVMs) using IVT mRNA. Transfection conditions were varied using GFP mRNA. After identifying the optimal vehicle for transfection (Viromer Red), the expression of the protein of interest, CatCh-V5, was assessed after a 24 hour pulse of mRNA. […] CatCh-V5 localized to the membrane of transfected cells roughly 12 hours after transfection. […] The inventors next evaluated the function of transfected NRVMs. CatCh is an opsin, which induces a membrane depolarization in response to blue light stimulation. CatCh transfected NRVMs were exposed to a range of optical intensities (0 to 100% power) using 475 nm blue LED light. At each light intensity, the inventors scanned a range of stimulation durations (1 to 15 milliseconds). A train of monophasic square waves at a frequency of 2 Hz for a total of 30 seconds was utilized. The inventors compared the capture rate of CatCh versus Channelrhodopsin 2 (ChR2), a commonly used opsin. […] Cells were then subjected to blue light stimulation and analyzed for capture at different transfection amounts and timepoints.

[5] = tested on: neonatal rat ventricular cardiomyocytes (NRVMs); test: CatCh-V5 expression time course by imaging and flow cytometry; assay type: cell-based; conditions: 24 hour pulse of mRNA; Viromer Red
Description: as §1

With `Cc1cccc(-c2nn(C(=S)Nc3ccccc3)cc2-c2ccnc3ccccc23)n1` [A83-01, reference compound] the “effect on ventricular pacing / block” value [1] was “reversed the block”.

B1: JAWS mRNA: mRNA encoding the inhibitory opsin JAWS, activated by constant orange or red light (nucleic acid)
chain: GGGAAATAAGAGAGAAAAGAAGAGTAAGAAGAAATATAAGAGCCACCATGACCGCCGTGTCTACCACAGCCACAACAGTGCTGCAGGCCACACAGAGCGACGTGCTGCAAGAGATCCAGAGCAACTTCCTGCTGAACAGCAGCATCTGGGTCAACATTGCCCTGGCCGGCGTTGTGATCCTGCTGTTTGTGGCCATGGGCCGCGATCTGGAAAGCCCTAGAGCCAAGCTGATCTGGGTCGCCACAATGCTGGTGCCCCTGGTGTCTATCAGCAGCTATGCCGGACTGGCCTCTGGCCTGACAGTGGGCTTTCTGCAAATGCCTCCTGGACACGCCCTGGCTGGACAAGAAGTTCTGTCTCCCTGGGGCAGATACCTGACCTGGACCTTCAGCACCCCTATGATTCTGCTGGCCCTGGGACTGCTGGCCGATACAGATATCGCCAGCCTGTTCACCGCCATCACCATGGACATCGGGATGTGTGTGACAGGCCTGGCCGCTGCTCTGATCACAAGCAGCCATCTGCTGAGATGGGTGTTCTACGGAATCAGCTGCGCCTTCTTCGTGGCCGTGCTGTATGTGCTGCTGGTGCAGTGGCCTGCCGATGCTGAAGCTGCCGGAACCTCTGAGATCTTCGGCACCCTGAGAATCCTGACCGTGGTGCTGTGGCTGGGCTACCCTATTCTGTTTGCCCTGGGCTCTGAAGGCGTGGCACTGCTGTCTGTGGGAGTGACAAGCTGGGGCTATAGCGGCCTGGACATCCTGGCCAAATACGTGTTCGCCTTTCTGCTCCTCAGATGGGTCGCCGCCAATGAGGGAACAGTGTCTGGCTCTGGCATGGGCATTGGATCTGGCGGAGCTGCCCCTGCTGATGATCCAGCTGCTGCCACCTATCCTTACGACGTGCCCGACTACGCCTGATGAGCTGCCTTCTGCGGGGCTTGCCTTCTGGCCATGCCCTTCTTCTCTCCCTTGCACCTGTACCTCTTGGTCTTTGAATAAAGCCTGAGTAGGAAGGCTCGCTTTCTTGCTGTCCAATTTCTATTAAAGGTTCCTTTGTTCCCTAAGTCCAACTACTAAACTGGGGGATATTATGAAGGGCCTTGAGCATCTGGATTCTGCCTAATAAAAAACATTTATTTTCATTGCGC
For B1, the “opsin function in dual transfection” value ([2]; 500 ng each of ChR2 and JAWS mRNA, next day, pulsed blue light and orange light) was “function of both opsins”, the “inhibition of beating under continuously applied orange light” value ([2]; period of 10 seconds orange light) was “inhibited beating completely” and the “time post-transfection at which complete capture (synchronization or complete inhibition) was observed” value ([2]; second highest and highest amounts of delivery vehicle) was 24 h.

B2: CatCH: mRNA encoding a modified ChR2 with a single amino acid substitution, CatCH (nucleic acid)
DNA: GGGAAATAAGAGAGAAAAGAAGAGTAAGAAGAAATATAAGAGCCACCATGGATTACGGCGGAGCCCTGTCTGCCGTGGGCAGAGAACTGCTGTTCGTGACCAACCCCGTGGTCGTGAACGGCAGCGTGCTGGTGCCTGAGGACCAGTGTTACTGCGCCGGCTGGATCGAGAGCAGAGGCACAAACGGCGCCCAGACCGCCTCTAACGTGCTGCAGTGGCTGGCCGCTGGCTTCAGCATCCTGCTGCTGATGTTCTACGCCTACCAGACCTGGAAGTCTACCTGCGGCTGGGAAGAGATCTACGTGTGCGCCATCGAGATGGTCAAAGTGATCCTGGAATTCTTCTTCGAATTCAAAAACCCCTCCATGCTGTACCTGGCCACCGGCCACAGAGTGCAGTGGCTGAGATACGCCGAGTGGCTGCTGACCTGCCCCGTGATCTGCATCCACCTGAGCAACCTGACCGGCCTGTCCAACGACTACAGCAGACGGACCATGGGCCTGCTGGTGTCCGACATCGGCACAATCGTGTGGGGCGCCACAAGCGCCATGGCCACAGGCTACGTGAAAGTGATCTTCTTCTGCCTGGGCCTGTGCTACGGCGCCAACACATTCTTCCACGCCGCCAAGGCCTACATCGAGGGCTACCACACAGTGCCCAAGGGCAGATGCAGACAGGTCGTGACAGGCATGGCCTGGCTGTTCTTCGTGTCCTGGGGCATGTTCCCCATCCTGTTCATCCTGGGCCCTGAGGGCTTCGGCGTGCTGTCTGTGTACGGCTCTACCGTGGGCCACACCATCATCGACCTGATGAGCAAGAACTGTTGGGGACTGCTGGGCCACTACCTGAGAGTGCTGATCCACGAGCACATCCTGATTCACGGCGACATCAGAAAGACCACCAAGCTGAACATCGGCGGCACCGAGATCGAGGTGGAAACCCTGGTGGAAGATGAGGCCGAGGCTGGCGCTGTGCCAGCCGCTGCTACAGGTAAGCCTATCCCTAACCCTCTCCTCGGTCTCGATTCTACGTGATAAGCTGCCTTCTGCGGGGCTTGCCTTCTGGCCATGCCCTTCTTCTCTCCCTTGCACCTGTACCTCTTGGTCTTTGAATAAAGCCTGAGTAGGAAGGC
modifications: mRNA transcribed from DNA
B2 was tested, and the “light sensitivity compared with ChR2 based on MEA measurements” value ([3]; 125 ng of CatCH versus 1000 ng of ChR2) was “much higher sensitivity than ChR2”, the “maximum beat rate comparison with ChR2” value ([3]; 1 hz, 2 hz, 3 hz LED pulsing, time course) was “able to sustain higher frequencies” and the “LED light intensity to which the opsin responds” value ([3]; 24 hours post transfection) was 5%. The “light required for electrical response relative to ChR2” value ([3]; 24 hours post-transfection) was 15 times, the “time post-transfection up to which cells could be driven at 3 hz” value ([3]; LED pulsing, maximum intensity excitation light) was “up to 72 hours” and the “beat rate at which cells were able to be driven” value ([3]; excitation rates of 1 hz, 2 hz, and 3 hz, up to 72 hours post-transfection) was 3 hz. For the same molecule, the “optimal RNA dose to achieve reliable pacing over time” value ([4]; 0.1, 1 and 10 ng/1000 cells tested) was 1 ng/1,000 cells, the “capture rate versus Channelrhodopsin 2 (ChR2)” value ([4]; 475 nm blue LED, 0 to 100% power, 1 to 15 milliseconds, 2 Hz for 30 seconds) was “superior sensitivity” and the “days post-transfection with highest capture rates at lowest stimulation thresholds” value ([4]; blue light stimulation) was 1 to 3 days. For the same molecule, the “time after transfection to membrane localization” value [5] was “roughly 12 hours”, the “time by which expression dropped off significantly” value [5] was ≤ 5 days and the “time of peak expression” value [5] was 24 h.
